According to patent US20210253724A1 (Hoffmann-La Roche, published 2021):

Columns and labels:
[1] = biological target: T1, cynomolgus monkey CEACAM5 on CHO-k1-cynoCEACAM5 clone 8 cells (cynomolgus monkey); experiment: flow cytometry on CHO-k1-cynoCEACAM5 clone 8
T1 construct: whole, on cells
Description: (§1) Cells were incubated for 30 min at 4° C. and then washed twice with 80 μL/well DPBS. […] Cells were washed twice with 80 μL/well DPBS and then fixed in 30 μL/well DPBS containing 1% Formaldehyde for at least 15 minutes. The same or the next day cells were resuspended in 50 μL/well FACS-buffer and acquired using MACSQuant Analyzer X (Miltenyi Biotec).

[2] = biological target: T2, human 4-1BB (CD137) on Jurkat-hu4-1BB-NFκB-luc2 reporter cells (human, UniProt Q07011 24-255); experiment: cell-based or functional assay; parameters: AUC of NFκB-luciferase activation curve, no CEA+ cells / AUC of NFκB-luciferase activation curve, with CHO-k1-cynoCEACAM5 clone 8: unit not given beside the values
[3] = biological target: T3, human CEACAM5 (CEA) on cells (human, UniProt P06731 35-685); experiment: flow cytometry on CHO-k1-humanCEACAM5 clone 13
T3 construct: Endogenous on MKN45 cells; full-length cDNA transfected into CHO-K1 cells; also called CEA expressed on MKN45 cells; CHO-k1-huCEACAM5 clone 11, clone 12, clone 13
T3 sequence: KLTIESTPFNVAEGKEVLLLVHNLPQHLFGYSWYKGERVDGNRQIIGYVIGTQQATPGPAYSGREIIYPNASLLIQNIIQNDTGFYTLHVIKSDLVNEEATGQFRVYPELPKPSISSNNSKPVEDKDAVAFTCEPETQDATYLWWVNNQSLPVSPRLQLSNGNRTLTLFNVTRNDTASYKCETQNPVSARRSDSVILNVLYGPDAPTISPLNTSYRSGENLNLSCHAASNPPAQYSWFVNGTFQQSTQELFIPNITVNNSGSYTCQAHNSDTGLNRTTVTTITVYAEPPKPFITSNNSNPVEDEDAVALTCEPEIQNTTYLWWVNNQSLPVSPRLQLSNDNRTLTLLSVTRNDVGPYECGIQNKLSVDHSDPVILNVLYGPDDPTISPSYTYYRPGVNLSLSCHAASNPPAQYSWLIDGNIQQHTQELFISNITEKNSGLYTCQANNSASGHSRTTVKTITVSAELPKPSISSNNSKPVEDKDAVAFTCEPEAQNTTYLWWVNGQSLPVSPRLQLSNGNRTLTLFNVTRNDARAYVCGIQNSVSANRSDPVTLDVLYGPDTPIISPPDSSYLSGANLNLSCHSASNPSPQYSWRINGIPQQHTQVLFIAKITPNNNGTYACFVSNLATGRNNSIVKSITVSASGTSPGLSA
Description: as §1

[4] = biological target: T3, human CEACAM5 (CEA) on cells; experiment: flow cytometry on CHO-k1-humanCEACAM5 clone 11
Description: as §1

[5] = biological target: T2, human 4-1BB (CD137) on …; experiment: cell-based or functional assay
[6] = biological target: T1, cynomolgus monkey CEACAM5 on …; experiment: flow cytometry on CHO-k1-cynoCEACAM5 clone 8; parameters: unit not given beside the values
[7] = biological target: T3, human CEACAM5 (CEA) on cells; experiment: flow cytometry on CHO-k1-humanCEACAM5 clone 12
Description: as §1

[8] = biological target: T3, human CEACAM5 (CEA) on cells; experiment: flow cytometry on CHO-K1-humanCEACAM5 clone 12 cells, goat F(ab')2 anti-human Fcγ-PE, median fluorescence intensity baseline corrected
Description: as §1

[9] = biological target: T2, human 4-1BB (CD137) on …; experiment: flow cytometry on Jurkat-hu4-1BB-NFκB-luc2 cells
Description: Plates were incubated for 30 minutes at 4° C. and washed once with 200 μL 4° C. cold DPBS buffer. […] Cells were washed twice with 200 μL 4° C. DPBS buffer and then resuspended in 50 μL/well DPBS containing 1% Formaldehyde for fixation. The same or the next day cells were resuspended in 100 μL FACS-buffer and acquired using MACSQuant Analyzer X (Miltenyi Biotec).

[10] = biological target: T4, human PD-L1 on MKN45-huPD-L1 cells (human, UniProt Q9NZQ7 19-290); experiment: flow cytometry on MKN45-huPD-L1 cells, goat F(ab')2 anti-human Fcγ-PE, gMFI baseline corrected
T4 construct: Full-length cDNA transfected into MKN45 cells; also called humanPD-L1-expressing MKN45 cells
T4 sequence (Q9NZQ7 19-290 limits assumed): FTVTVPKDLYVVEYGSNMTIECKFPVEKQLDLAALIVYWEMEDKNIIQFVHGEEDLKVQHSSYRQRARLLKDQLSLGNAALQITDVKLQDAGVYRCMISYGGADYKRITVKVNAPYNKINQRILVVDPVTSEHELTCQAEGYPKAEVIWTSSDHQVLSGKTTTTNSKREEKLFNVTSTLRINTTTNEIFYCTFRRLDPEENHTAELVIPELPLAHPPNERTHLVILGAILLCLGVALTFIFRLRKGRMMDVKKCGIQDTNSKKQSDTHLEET
Description: as §1

B1: 2+1 H2H 4-1BB (20H4.9)/CEA (A5B7) P329GLALA IgG1 (bispecific antibody)
heavy 1: QVQLQQWGAGLLKPSETLSLTCAVYGGSFSGYYWSWIRQSPEKGLEWIGEINHGGYVTYNPSLESRVTISVDTSKNQFSLKLSSVTAADTAVYYCARDYGPGNYDWYFDLWGRGTLVTVSSASTKGPSVFPLAPSSKSTSGGTAALGCLVEDYFPEPVTVSWNSGALTSGVHTFPAVLQSSGLYSLSSVVTVPSSSLGTQTYICNVNHKPSNTKVDEKVEPKSCDKTHTCPPCPAPEAAGGPSVFLFPPKPKDTLMISRTPEVTCVVVDVSHEDPEVKFNWYVDGVEVHNAKTKPREEQYNSTYRVVSVLTVLHQDWLNGKEYKCKVSNKALGAPIEKTISKAKGQPREPQVCTLPPSRDELTKNQVSLSCAVKGFYPSDIAVEWESNGQPENNYKTTPPVLDSDGSFFLVSKLTVDKSRWQQGNVFSCSVMHEALHNHYTQKSLSLSP
heavy 2: not shown
light 1: not shown
light 2: EVKLVESGGGLVQPGGSLRLSCATSGFTFTDYYMNWVRQPPGKALEWLGFIGNKANGYTTEYSASVKGRFTISRDKSQSILYLQMNTLRAEDSATYYCTRDRGLRFYFDYWGQGTTLTVSSASVAAPSVFIFPPSDEQLKSGTASVVCLLNNFYPREAKVQWKVDNALQSGNSQESVTEQDSKDSTYSLSSTLTLSKADYEKHKVYACEVTHQGLSSPVTKSFNRGEC
notes: also called 2+1 H2H anti-4-1BB (20H4.9)×anti-CEA (A5B7) huIgG1 P329GLALA
[1]
  EC50: 48.8 nM
[2]
  AUC of NFκB-luciferase activation curve, no CEA+ cells: 1320
  AUC of NFκB-luciferase activation curve, with CHO-k1-cynoCEACAM5 clone 8: 43100
  AUC of NFκB-luciferase activation curve, with CHO-k1-humanCEACAM5 clone 11: 65700
  AUC of NFκB-luciferase activation curve, with CHO-k1-humanCEACAM5 clone 12: 58900
[3]
  EC50: 12.9 nM
[4]
  EC50: 11.4 nM
[5]
  EC50 of NFκB-luciferase activation curve, no CEA+ cells: 0.04 nM
  EC50 of NFκB-luciferase activation curve, with CHO-k1-cynoCEACAM5 clone 8: 0.07 nM
  EC50 of NFκB-luciferase activation curve, with CHO-k1-humanCEACAM5 clone 11: 0.04 nM
  EC50 of NFκB-luciferase activation curve, with CHO-k1-humanCEACAM5 clone 12: 0.03 nM
[6]
  AUC: 4850
[7]
  EC50: 13.9 nM

B2: anti-4-1BB (20H4.9) huIgG1 P329GLALA (antibody, V domains shown)
VH: QVQLQQWGAGLLKPSETLSLTCAVYGGSFSGYYWSWIRQSPEKGLEWIGEINHGGYVTYNPSLESRVTISVDTSKNQFSLKLSSVTAADTAVYYCARDYGPGNYDWYFDLWGRGTLVTVSS
VL: EIVLTQSPATLSLSPGERATLSCRASQSVSSYLAWYQQKPGQAPRLLIYDASNRATGIPARFSGSGSGTDFTLTISSLEPEDFAVYYCQQRSNWPPALTFGGGTKVEIK
notes: Standard huIgG1 P329G LALA antibody with two anti-4-1BB Fabs
[8]
  binding result: no binding (tested: about 300 nM)
[2]
  AUC of NFκB-luciferase activation curve, no CEA+ cells: 5070
  AUC of NFκB-luciferase activation curve, with CHO-k1-cynoCEACAM5 clone 8: 4920
  AUC of NFκB-luciferase activation curve, with CHO-k1-humanCEACAM5 clone 11: 15400
  AUC of NFκB-luciferase activation curve, with CHO-k1-humanCEACAM5 clone 12: 11900
[9]
  EC50: 0.073 nM
[10]
  binding result: no binding (tested: 100 nM)
[5]
  EC50 of NFκB-luciferase activation curve, no CEA+ cells: 0.19 nM
  EC50 of NFκB-luciferase activation curve, with CHO-k1-cynoCEACAM5 clone 8: 0.17 nM
  EC50 of NFκB-luciferase activation curve, with CHO-k1-humanCEACAM5 clone 11: 0.18 nM
  EC50 of NFκB-luciferase activation curve, with CHO-k1-humanCEACAM5 clone 12: 0.19 nM
[6]
  AUC: 136
